Reference: patent US20220411483A1 (Chugai, published 2022)
Numbering of substitutions follows the chain as printed. Each block holds one binder with its values, some of them ahead of it.

Experiments:
FcgRIIb = target: T1, FcgRIIb (human, UniProt P31994 43-217); experiment: SPR, amount bound per captured antibody
T1 construct: extracellular domain; also called FcγRIIb
T1 sequence (looked up): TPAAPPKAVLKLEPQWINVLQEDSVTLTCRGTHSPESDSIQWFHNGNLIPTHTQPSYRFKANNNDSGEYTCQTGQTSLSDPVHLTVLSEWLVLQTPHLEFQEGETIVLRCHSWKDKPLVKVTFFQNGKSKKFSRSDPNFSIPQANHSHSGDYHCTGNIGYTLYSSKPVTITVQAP

FcgRIIaR = target: T2, FcgRIIaR (human, UniProt P12318 34-217); experiment: SPR, amount bound per captured antibody
T2 construct: extracellular domain; also called FcγRIIa R type; FcγRIIa (R type)
T2 sequence (looked up): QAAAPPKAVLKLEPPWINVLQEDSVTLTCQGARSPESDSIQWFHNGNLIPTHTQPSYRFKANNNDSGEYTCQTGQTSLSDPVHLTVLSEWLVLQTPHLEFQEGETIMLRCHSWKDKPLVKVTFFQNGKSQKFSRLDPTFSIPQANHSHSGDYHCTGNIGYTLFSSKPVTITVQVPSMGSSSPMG

human complement C1q = target: T3, human complement C1q (human, UniProt P02745 23-245; P02746 28-253; P02747 29-245); experiment: SPR, C1q bound per antibody captured on Protein L
T3 construct: Bought (PROSPEC or Calbiochem); also called human C1q
Experimental: The interaction between an antibody and human C1q was analyzed using Biacore T200 (GE Healthcare). HBS-EP+ (GE Healthcare) was used as the running buffer, and the measurement temperature was set at 25° C. Chips produced by immobilizing Protein L (ACTIGEN or BioVision) onto Series S sensor Chip CM4 (GE Healthcare) by amine coupling were used.
The antibodies of interest were captured onto these sensor chips, and allowed to interact with human complement C1q (PROSPEC or Calbiochem) diluted in the running buffer. The amount of antibody binding was determined, and comparisons were made among the antibodies. However, since the amount of C1q bound depends on the amount of captured antibodies, corrected values obtained by dividing the amount of C1q bound by the amount of each antibody captured were compared. Furthermore, by reaction with 10 mM glycine-HCl, pH 1.5, the antibodies captured onto the sensor chips were washed, and the sensor chips were recycled and reused.

[1] = target: T4, human FcγRIa extracellular domain with C-terminal His tag (human, UniProt P12314 16-292); experiment: SPR, KD of IL6R-G1d/IL6R-L divided by KD of variant
T4 construct: Whole entry named; also called FcgRIa

[2] = target: T5, human FcγRIIa H type extracellular domain with C-terminal His tag (human, UniProt P12318 34-217); experiment: as above
T5 construct: extracellular domain; also called FcgRIIaH
T5 sequence (looked up): T2 sequence (looked up) with R134H

[3] = target: T6, human FcγRIIIa V type extracellular domain with C-terminal His tag (human, UniProt P08637 17-208); experiment: as above
T6 construct: extracellular domain; also called FcgRIIIaV

[4] = target: T7, human FcγRIIb extracellular domain with C-terminal His tag (human, UniProt P31994 43-217); experiment: as above
T7 construct: extracellular domain; also called FcgRIIb
T7 sequence (looked up): T1 sequence (looked up)

[5] = target: T8, human FcγRIIa R type extracellular domain with C-terminal His tag (human, UniProt P12318 34-217); experiment: as above
T8 construct: extracellular domain; also called FcgRIIaR
T8 sequence (looked up): T2 sequence (looked up)

[6] = target: T4, human FcγRIa extracellular domain with …; experiment: SPR, antibody captured, FcgR analyte
[7] = target: T7, human FcγRIIb extracellular domain with …; experiment: SPR, antibody captured, FcgR analyte

T3 sequence (P02745 23-245 limits assumed, chain 1 of 3): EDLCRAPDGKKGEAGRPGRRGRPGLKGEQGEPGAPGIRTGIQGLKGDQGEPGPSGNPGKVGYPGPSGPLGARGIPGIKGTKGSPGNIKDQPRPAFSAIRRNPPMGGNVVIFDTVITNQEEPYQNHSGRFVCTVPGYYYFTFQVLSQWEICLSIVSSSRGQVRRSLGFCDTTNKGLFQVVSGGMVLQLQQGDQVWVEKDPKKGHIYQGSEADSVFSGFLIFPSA
T3 sequence (P02746 28-253 limits assumed, chain 2 of 3): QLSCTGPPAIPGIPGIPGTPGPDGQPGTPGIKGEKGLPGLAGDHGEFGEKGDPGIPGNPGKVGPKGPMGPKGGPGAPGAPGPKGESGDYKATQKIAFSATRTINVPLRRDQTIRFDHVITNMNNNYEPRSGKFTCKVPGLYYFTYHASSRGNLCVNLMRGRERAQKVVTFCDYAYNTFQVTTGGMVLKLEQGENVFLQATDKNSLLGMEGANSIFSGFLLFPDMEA
T3 sequence (P02747 29-245 limits assumed, chain 3 of 3): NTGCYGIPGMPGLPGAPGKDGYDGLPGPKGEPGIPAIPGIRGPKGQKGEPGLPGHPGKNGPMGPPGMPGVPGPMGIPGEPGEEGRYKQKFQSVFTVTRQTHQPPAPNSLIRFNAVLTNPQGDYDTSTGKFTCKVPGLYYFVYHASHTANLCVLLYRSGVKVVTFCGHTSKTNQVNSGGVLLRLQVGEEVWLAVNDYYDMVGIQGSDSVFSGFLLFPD
T4 sequence (P12314 16-292): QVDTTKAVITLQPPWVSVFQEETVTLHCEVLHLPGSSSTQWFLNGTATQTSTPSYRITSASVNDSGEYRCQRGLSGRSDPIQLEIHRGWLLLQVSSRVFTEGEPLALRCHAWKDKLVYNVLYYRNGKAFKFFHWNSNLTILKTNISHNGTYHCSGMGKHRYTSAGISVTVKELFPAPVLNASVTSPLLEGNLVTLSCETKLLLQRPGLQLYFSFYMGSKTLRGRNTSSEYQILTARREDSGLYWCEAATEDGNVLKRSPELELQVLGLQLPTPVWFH
T6 sequence (P08637 17-208 F176V): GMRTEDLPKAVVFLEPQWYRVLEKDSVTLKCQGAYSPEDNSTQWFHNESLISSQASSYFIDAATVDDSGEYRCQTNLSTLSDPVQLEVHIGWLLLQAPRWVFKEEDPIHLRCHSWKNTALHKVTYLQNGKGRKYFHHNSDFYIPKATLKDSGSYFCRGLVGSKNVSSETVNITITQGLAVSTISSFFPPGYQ

- Relative FcgRIa-binding Activity [1]: 0.003
- Relative FcgRIIaH-binding Activity [2]: 0.006
- Relative FcgRIIIaV-binding Activity [3]: 0.01
- Relative FcgRIIb-binding Activity [4]: 0.2
- Relative FcgRIIaR-binding Activity [5]: 0.02
- Kd [6]: 120 nM
- Kd [7]: 8500 nM
B5: IL6R-P786/IL6R-L (antibody, human IgG1, kappa)
heavy: QVQLQESGPGLVKPSETLSLTCAVSGHSISHDHAWSWVRQPPGEGLEWIGFISYSGITNYNPSLQGRVTISRDNSKNTLYLQMNSLRAEDTAVYYCARSLARTTAMDYWGEGTLVTVSSASTKGPSVFPLAPSSKSTSGGTAALGCLVKDYFPEPVTVSWNSGALTSGVHTFPAVLQSSGLYSLSSVVTVPSSSLGTQTYICNVNHKPSNTKVDKKVEPKSCDKTHTCPPCPAPELLGDDSVFLFPPKPKDTLMISRTPEVTCVVVDVSHEDPEVKFNWYVDGVEVHNAKTKPREEQYNATYRVVSVLTVLHQDWLNGKEYKCKVSNKGLPSSIEKTISKAKGQPREPQVYTLPPSRDELTKNQVSLTCLVKGFYPSDIAVEWESNGQPENNYKTTPPVLDSDGSFFLYSKLTVDKSRWQQGNVFSCSVMHEALHNHYTQKSLSLSP
light: not shown

- Relative FcgRIIb-binding Activity (FcgRIIb): 118 IL6R-G1d/IL6R-L=100
- Relative FcgRIIaR-binding Activity (FcgRIIaR): 28.6 IL6R-G1d/IL6R-L=100
- Amount of C1q-binding when that for G1d is Defined as 100 (human complement C1q): 24.2 G1d=100
B7: IL6R-P784/IL6R-L (antibody, human IgG1, kappa)
heavy: B5 heavy with E235D, A300S
light: not shown

- Relative FcgRIIb-binding Activity (FcgRIIb): 95.1 IL6R-G1d/IL6R-L=100
- Relative FcgRIIaR-binding Activity (FcgRIIaR): 14.2 IL6R-G1d/IL6R-L=100
- Amount of C1q-binding when that for G1d is Defined as 100 (human complement C1q): 1.3 G1d=100
B9: IL6R-P782/IL6R-L (antibody, human IgG1, kappa)
heavy: B5 heavy with E235D, D239G, A300S
light: not shown

- Relative FcgRIa-binding Activity [1]: 0.006
- Relative FcgRIIaH-binding Activity [2]: 0.007
- Relative FcgRIIIaV-binding Activity [3]: 0.01
- Relative FcgRIIb-binding Activity [4]: 0.5
- Relative FcgRIIaR-binding Activity [5]: 0.02
- Kd [6]: 56 nM
- Kd [7]: 4600 nM
B12: IL6R-P787/IL6R-L (antibody, human IgG1, kappa)
heavy: B5 heavy with E235D
light: not shown

Continued, binder first:

B1: IL6R-P773/IL6R-L (antibody, human IgG1, kappa)
heavy: B5 heavy with D239G, S269A, H270E, P273G, A300S, K324A, G329A, S332A, S333P
light: not shown
- Relative FcgRIIb-binding Activity (FcgRIIb): 192 IL6R-G1d/IL6R-L=100
- Relative FcgRIIaR-binding Activity (FcgRIIaR): 87.3 IL6R-G1d/IL6R-L=100
- Amount of C1q-binding when that for G1d is Defined as 100 (human complement C1q): 1.7 G1d=100

B2: IL6R-P781/IL6R-L (antibody, human IgG1, kappa)
heavy: B5 heavy with D239G
light: not shown
- Relative FcgRIIb-binding Activity (FcgRIIb): 51.1 IL6R-G1d/IL6R-L=100
- Relative FcgRIIaR-binding Activity (FcgRIIaR): 7.8 IL6R-G1d/IL6R-L=100
- Amount of C1q-binding when that for G1d is Defined as 100 (human complement C1q): 24 G1d=100

B3: IL6R-P778/IL6R-L (antibody, human IgG1, kappa)
heavy: QVQLQESGPGLVKPSETLSLTCAVSGHSISHDHAWSWVRQPPGEGLEWIGFISYSGITNYNPSLQGRVTISRDNSKNTLYLQMNSLRAEDTAVYYCARSLARTTAMDYWGEGTLVTVSSASTKGPSVFPLAPSSKSTSGGTAALGCLVKDYFPEPVTVSWNSGALTSGVHTFPAVLQSSGLYSLSSVVTVPSSSLGTQTYICNVNHKPSNTKVDKKVEPKSCDKTHTCPPCPAPDLLGGDSVFLFPPKPKDTLMISRTPEVTCVVIDVAEEDGEVKFNWYVDGVEVHNAKTKPREEQYNSTYRVVSVLTVLHQDWLNGKEYKCEVSNKALPAPIEKTISKAKGQPREPQVYTLPPSRDELTKNQVSLTCLVKGFYPSDIAVEWESNGQPENNYKTTPPVLDSDGSFFLYSKLTVDKSRWQQGNVFSCSVMHEALHNHYTQKSLSLSP
light: not shown
notes: also called IL6B-P778/IL6R-L
- Relative FcgRIIb-binding Activity (FcgRIIb): 198 IL6R-G1d/IL6R-L=100
- Relative FcgRIIaR-binding Activity (FcgRIIaR): 105 IL6R-G1d/IL6R-L=100
- Amount of C1q-binding when that for G1d is Defined as 100 (human complement C1q): 23.9 G1d=100

B4: IL6R-P775/IL6R-L (antibody, human IgG1, kappa)
heavy: B3 heavy with D235E, I266V, A269S, E270H, E324A
light: not shown
- Relative FcgRIIb-binding Activity (FcgRIIb): 180 IL6R-G1d/IL6R-L=100
- Relative FcgRIIaR-binding Activity (FcgRIIaR): 64.2 IL6R-G1d/IL6R-L=100
- Amount of C1q-binding when that for G1d is Defined as 100 (human complement C1q): 21.8 G1d=100

B6: IL6R-P776/IL6R-L (antibody, human IgG1, kappa)
heavy: B3 heavy with D235E, I266V, A269S, E270H
light: not shown
- Relative FcgRIIb-binding Activity (FcgRIIb): 190 IL6R-G1d/IL6R-L=100
- Relative FcgRIIaR-binding Activity (FcgRIIaR): 77.4 IL6R-G1d/IL6R-L=100
- Amount of C1q-binding when that for G1d is Defined as 100 (human complement C1q): 0.7 G1d=100

B8: IL6R-P772/IL6R-L (antibody, human IgG1, kappa)
heavy: B3 heavy with D235E, A269S, E270H
light: not shown
- Relative FcgRIIb-binding Activity (FcgRIIb): 196 IL6R-G1d/IL6R-L=100
- Relative FcgRIIaR-binding Activity (FcgRIIaR): 84.3 IL6R-G1d/IL6R-L=100
- Amount of C1q-binding when that for G1d is Defined as 100 (human complement C1q): 21.6 G1d=100

B10: IL6R-P777/IL6R-L (antibody, human IgG1, kappa)
heavy: B3 heavy with E324A
light: not shown
- Relative FcgRIIb-binding Activity (FcgRIIb): 198 IL6R-G1d/IL6R-L=100
- Relative FcgRIIaR-binding Activity (FcgRIIaR): 97.5 IL6R-G1d/IL6R-L=100
- Amount of C1q-binding when that for G1d is Defined as 100 (human complement C1q): 12.4 G1d=100

B11: IL6R-P774/IL6R-L (antibody, human IgG1, kappa)
heavy: B3 heavy with D235E, I266V
light: not shown
- Relative FcgRIIb-binding Activity (FcgRIIb): 200 IL6R-G1d/IL6R-L=100
- Relative FcgRIIaR-binding Activity (FcgRIIaR): 98.8 IL6R-G1d/IL6R-L=100
- Amount of C1q-binding when that for G1d is Defined as 100 (human complement C1q): 15.2 G1d=100
